Literature values in publication PMC5982148.
pKd: −log10 of the molar value.

Legend:
Test in all cases: SPR
[1] = molecular target: CYP1B1 (Homo sapiens) (UniProt Q16678)
[2] = molecular target: glyceraldehyde-3-phosphate dehydrogenase (Homo sapiens) (UniProt P04406)
[3] = molecular target: CYP2C9 (Homo sapiens) (UniProt P11712)
[4] = molecular target: cytochrome b5 (Homo sapiens) (UniProt P00167)
[5] = molecular target: NADPH-adrenodoxin reductase (Homo sapiens) (UniProt P22570)
[6] = molecular target: SMAD4 (Homo sapiens) (UniProt Q13485)
UniProt Q13485, sequence (Q13485 whole entry): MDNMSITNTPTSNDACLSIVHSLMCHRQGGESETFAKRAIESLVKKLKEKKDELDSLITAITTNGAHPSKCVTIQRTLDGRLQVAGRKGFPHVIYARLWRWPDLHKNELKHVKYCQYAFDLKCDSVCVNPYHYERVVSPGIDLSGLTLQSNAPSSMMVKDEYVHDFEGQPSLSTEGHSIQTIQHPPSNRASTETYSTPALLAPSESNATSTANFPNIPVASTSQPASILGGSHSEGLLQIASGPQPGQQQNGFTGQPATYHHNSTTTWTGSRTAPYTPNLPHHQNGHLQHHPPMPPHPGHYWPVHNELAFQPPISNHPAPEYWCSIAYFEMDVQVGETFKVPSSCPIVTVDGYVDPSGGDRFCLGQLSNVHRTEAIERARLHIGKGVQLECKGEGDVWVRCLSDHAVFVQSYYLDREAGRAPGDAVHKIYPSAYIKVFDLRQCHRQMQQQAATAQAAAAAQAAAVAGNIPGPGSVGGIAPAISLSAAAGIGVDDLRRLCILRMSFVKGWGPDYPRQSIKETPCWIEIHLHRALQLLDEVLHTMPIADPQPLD

UniProt P11712, sequence (P11712 whole entry): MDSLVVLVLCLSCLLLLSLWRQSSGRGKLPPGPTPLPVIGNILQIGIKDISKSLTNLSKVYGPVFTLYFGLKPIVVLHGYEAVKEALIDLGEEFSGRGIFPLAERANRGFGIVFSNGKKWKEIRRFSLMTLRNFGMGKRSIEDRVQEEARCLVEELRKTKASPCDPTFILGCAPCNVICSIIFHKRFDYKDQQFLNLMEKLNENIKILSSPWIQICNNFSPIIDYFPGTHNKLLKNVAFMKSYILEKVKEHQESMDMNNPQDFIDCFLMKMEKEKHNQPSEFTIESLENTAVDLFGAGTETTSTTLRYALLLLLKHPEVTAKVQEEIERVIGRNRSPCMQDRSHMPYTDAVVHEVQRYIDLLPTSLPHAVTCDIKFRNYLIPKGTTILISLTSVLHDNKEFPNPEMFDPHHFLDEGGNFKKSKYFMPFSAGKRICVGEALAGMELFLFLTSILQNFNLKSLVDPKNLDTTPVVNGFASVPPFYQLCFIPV
UniProt P22570, sequence (P22570 33-491): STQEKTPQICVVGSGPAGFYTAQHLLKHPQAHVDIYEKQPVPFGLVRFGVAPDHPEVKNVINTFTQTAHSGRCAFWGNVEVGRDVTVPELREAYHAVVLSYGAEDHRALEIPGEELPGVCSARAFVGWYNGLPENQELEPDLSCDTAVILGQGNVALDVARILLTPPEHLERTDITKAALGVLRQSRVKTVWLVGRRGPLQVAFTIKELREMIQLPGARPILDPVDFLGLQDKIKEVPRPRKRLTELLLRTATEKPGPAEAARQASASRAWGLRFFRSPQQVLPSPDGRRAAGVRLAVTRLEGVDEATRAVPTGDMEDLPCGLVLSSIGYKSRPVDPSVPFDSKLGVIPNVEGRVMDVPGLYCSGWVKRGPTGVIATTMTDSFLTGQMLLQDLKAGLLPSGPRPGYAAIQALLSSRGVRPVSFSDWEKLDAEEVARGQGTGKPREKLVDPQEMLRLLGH
UniProt P04406, sequence (P04406 2-335): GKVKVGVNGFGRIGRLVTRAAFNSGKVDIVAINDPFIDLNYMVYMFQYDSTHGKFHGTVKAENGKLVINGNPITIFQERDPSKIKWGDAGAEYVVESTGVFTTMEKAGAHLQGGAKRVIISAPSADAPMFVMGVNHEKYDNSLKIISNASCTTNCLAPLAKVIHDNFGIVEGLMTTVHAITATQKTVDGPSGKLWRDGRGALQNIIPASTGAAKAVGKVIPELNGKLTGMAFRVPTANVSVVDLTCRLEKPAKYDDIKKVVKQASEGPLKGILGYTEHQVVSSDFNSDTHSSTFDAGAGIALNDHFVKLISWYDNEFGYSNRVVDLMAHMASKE
UniProt Q16678, sequence (Q16678 whole entry): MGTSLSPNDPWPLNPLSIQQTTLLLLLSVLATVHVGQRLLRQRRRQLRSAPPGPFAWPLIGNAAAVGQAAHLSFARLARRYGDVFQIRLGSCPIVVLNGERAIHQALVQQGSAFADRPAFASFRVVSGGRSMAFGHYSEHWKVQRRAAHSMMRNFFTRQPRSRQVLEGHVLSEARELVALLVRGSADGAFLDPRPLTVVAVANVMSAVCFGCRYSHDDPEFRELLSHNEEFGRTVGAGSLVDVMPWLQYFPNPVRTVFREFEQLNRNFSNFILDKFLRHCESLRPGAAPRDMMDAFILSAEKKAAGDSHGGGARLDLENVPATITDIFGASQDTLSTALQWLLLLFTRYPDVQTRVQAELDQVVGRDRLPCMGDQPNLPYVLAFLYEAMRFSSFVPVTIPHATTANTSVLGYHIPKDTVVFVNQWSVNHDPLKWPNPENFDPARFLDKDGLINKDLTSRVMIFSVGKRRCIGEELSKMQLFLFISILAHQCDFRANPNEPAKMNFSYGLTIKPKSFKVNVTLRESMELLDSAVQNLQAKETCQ

Row | pKd [1] | pKd [2] | pKd [3] | pKd [4] | pKd [5] | pKd [6] | Substance
1 | 7.15 | 7.00 | 5.96 |  |  |  | cytochrome b5 (from UniProt P00167)
2 |  |  |  | 5.82 | 4.89 | 5.80 | ferrochelatase (from UniProt P22830)
